From patent US20200277374A1 (Alector, published 2020) come the findings set out here.

The target of experiment [1] is T1, human Siglec-7 expressed on human cells (primary monocytes, dendritic cells, macrophages, NK cells, … (human, UniProt Q9Y286 19-467)). In words: cell-based or functional assay.
The target in experiment [2] is T2, Histidine-tagged human Siglec-7 (NovoProtein) (human, UniProt Q9Y286 19-357, limits assumed).
T2 construct: Bought protein; also called purified Siglec-7-his tagged protein; not shown: histidine tag
In words: SPR (BiaCore T200, 25 C), antibody captured on anti-mouse IgG, Siglec-7-His 25 nM, single-concentration kinetics. Here is the method: (§1) SPR data was collected at a rate of 10 Hz at 25′ C on a BiaCore T200 instrument. Data analysis was performed using BiaCore T200 Evaluation Software, version 2.0. HBS-EP+ (100 mM HEPES, 1.5 M NaCl, 30 mM EDTA, 0.5% v/v Surfactant P20, pH 7.4) was used as running buffer and for preparing reagents.
(§2) Mouse-derived antibodies (25 nM) against Siglec-7 were captured (60 s contact time, 30 μL/min flow rate, 0 s stabilization time) on a CM5 sensor chip (GE Healthcare) immobilized with anti-mouse IgG. Histidine-tagged human Siglec-7 (NovoProtein) was then flowed over the captured anti-Siglec-7 surface (120 s contact time, 30 μL/min flow rate, 300 s dissociation time). Concentration of antigen ranged from 5 nM to 100 nM, depending on information obtained from an initial screen. Duplicate single-concentration trials were performed and bracketed by a blank (0 nM antigen) sample. The chip surface was regenerated in between cycles using 10 mM glycine-HCl, pH1.7 (60 s contact time, 30 μL/min flow rate, 60 s stabilization time). The resulting SPR signal was obtained as the difference in response from measurements performed on a blank flow cell.
(§3) Affinity constants (KD) were calculated from the ratio kd/kₐ. For one antibody (clone 1E8), we validated the single-concentration analysis with a multiple-concentration approach (five concentrations of antigen used, plus one blank).
Background: Surface plasmon resonance follows binding to a sensor surface in real time, without labels.

The target of experiment [3] is T1, human Siglec-7 expressed on human cells …. In words: cell-based or functional assay. The source holds these as a separate data set.
The target is the same in experiment [4]. In words: FACS, human primary dendritic cells, 10 ug/ml mAb. The procedure:
(§4) Initial characterization of Siglec-7 antibodies involved determining their ability to bind Siglec-7 expressed on human primary monocytes, human primary macrophages, human primary dendritic cells, human primary neutrophils, and human primary natural killer (NK) cells. Cells were harvested, plated at 10⁶/ml in a 96 well plate, and incubated in 100 ul PBS containing 2% FBS, 2 mM EDTA and 10 μg/ml Mab and Fc blocking reagent for 1 hour in ice. Cells were washed twice and incubated in 100 ul PBS containing 2% FBS, 2 mM EDTA and 5 ug/ml PE-conjugated secondary antibody for 30 minutes on ice. Cells were washed twice in cold PBS and analyze by flow cytometry on a BD FACS Canto. Data analysis and calculation of MFI values was performed with FlowJo (TreeStar) software version 10.0.7.
(§5) Percent positive binding and mean fluorescent intensity (MFI) values for cell types bound by Siglec-7 antibodies are listed in Table 4A. Binding is compared to an isotype control. The antibodies bind to human primary monocytes, human primary dendritic cells, and human primary macrophages. In Table 4A, “Buffer” refers to cells that were treated only with the PBS buffer described supra; “Secondary Ab” refers to cells that were treated only with the PE-conjugated secondary antibody; “mIgG1,” “mIgG2a,” and “mIgG2b” refer to isotype control antibodies; and “RDS7” refers to commerically available anti-Siglec-7 antibody Mab1138 (R&D Systems; Cat. No. MAB 1138).
Background: In flow cytometry, cells or beads pass a laser one at a time.

Experiment [5] addresses T3, Siglec-7-Fc (plate immobilized) (human, UniProt Q9Y286 19-357, limits assumed).
T3 construct: also called Siglec-7-Fc protein; immobilized Siglec-7; not shown: Fc part
In words: RBC solid adhesion assay, plate-coated Siglec-7-Fc, antibody 0.5 or 1.0 ug/ml; % of RBC binding without antibody. Here is the method: To determine which antibodies compete with ligand binding to Siglec-7, a red blood cell (RBC) solid adhesion assay was carried out in accordance with standard protocols (Kelm et al., Current Biology, 1994). Red blood cells are highly decorated with glycoproteins containing sialic acids: therefore, the ability of an antibody to block RBC binding to immobilized Siglec-7 can be used to determine ligand interference. Briefly, 5 μg/ml Siglec-7-Fc was coated overnight at RT in 96 well Immunolon plates, then washed with PBS, blocked for one hour with binding buffer (PBS containing %0.25 BSA 1 mM CaCl₂), Siglec-7 antibodies (0.5 μg/ml or 1.0 μg/ml) were bound for one hour at RT with gentle rocking. After removal of unbound antibody, red blood cells were added to each well at a concentration of 3.0×10⁶ cells per ml and incubated at RT for one hour. Unbound RBCs were then carefully washed off 3× with PBS, and water was added to each well for hypotonic lysis of bound RBCs. The plate was transferred to −80° C. for 10 minutes, followed by 37° C. for 15 minutes. Bound RBCs were detected by peroxidase activity, followed by 2N sulfuric acid to stop the reaction. Signal was detected at […]. Data was calculated as a percent of RBC binding to plate bound Siglec-7-Fc in the absence of antibody.

The target of experiment [6] is T1, human Siglec-7 expressed on human cells …. In words: FACS, human primary monocytes, 10 ug/ml mAb. Here is the method: as §4, §5
The target is the same in experiment [7]. In words: FACS, human primary macrophages, 10 ug/ml mAb. The procedure: as §4, §5
Experiment [8] has the same target. In words: cell-based or functional assay. This is another data set of the same source.
Experiment [9] shares this target. In words: FACS titration on primary human dendritic cells, donor 359, 4 C. The procedure: (§6) Two Siglec-7 antibodies, 4E3 and 10B5, were titrated 2-fold for a 12-point curve with a concentration range of 6.67-0.00325 nM to assess binding and calculate half-maximal concentration (EC₅₀) for binding to primary human dendritic cells (FIG. 5B). Antibodies were serially diluted and incubated with cells in PBS with 1% BSA, 1 mM EDTA for 1 hour on ice (4° C.). Cells were pelleted and resuspended with goat anti-mouse secondary antibody conjugated with APC (BD Biosciences) at a 1:200 dilution in buffer. Secondary detection antibody was incubated for 30 minutes on ice (4° C.), then cells were washed 3 times in buffer before analyzing on a BD FACS Canto for APC MR. Data were analyzed with FlowJo Software (TreeStar).

The target is the same in experiment [10]. In words: FACS titration on primary human dendritic cells, donor 358, 4 C. Here is the method: as §6
Experiment [11] concerns the target T2, Histidine-tagged human Siglec-7 …. In words: SPR (BiaCore T200, 25 C), antibody captured on anti-mouse IgG, Siglec-7-His 20 nM, single-concentration kinetics. Here is the method: as §1, §2, §3

Where a chain is given by its changes, count along the chain named.

T1 sequence (Q9Y286 19-467): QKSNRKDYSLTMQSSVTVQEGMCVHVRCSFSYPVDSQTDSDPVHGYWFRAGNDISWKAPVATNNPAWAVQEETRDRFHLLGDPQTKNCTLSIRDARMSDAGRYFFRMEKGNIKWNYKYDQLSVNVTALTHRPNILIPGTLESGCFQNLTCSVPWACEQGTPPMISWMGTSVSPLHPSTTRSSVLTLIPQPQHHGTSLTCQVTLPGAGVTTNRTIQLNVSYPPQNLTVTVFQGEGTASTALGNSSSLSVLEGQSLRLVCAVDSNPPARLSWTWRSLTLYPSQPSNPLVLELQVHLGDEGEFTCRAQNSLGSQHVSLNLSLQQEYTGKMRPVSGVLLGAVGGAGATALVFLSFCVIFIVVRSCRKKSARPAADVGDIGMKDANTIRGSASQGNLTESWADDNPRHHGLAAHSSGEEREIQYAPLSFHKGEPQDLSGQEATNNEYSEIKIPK
T2 sequence (Q9Y286 19-357 limits assumed): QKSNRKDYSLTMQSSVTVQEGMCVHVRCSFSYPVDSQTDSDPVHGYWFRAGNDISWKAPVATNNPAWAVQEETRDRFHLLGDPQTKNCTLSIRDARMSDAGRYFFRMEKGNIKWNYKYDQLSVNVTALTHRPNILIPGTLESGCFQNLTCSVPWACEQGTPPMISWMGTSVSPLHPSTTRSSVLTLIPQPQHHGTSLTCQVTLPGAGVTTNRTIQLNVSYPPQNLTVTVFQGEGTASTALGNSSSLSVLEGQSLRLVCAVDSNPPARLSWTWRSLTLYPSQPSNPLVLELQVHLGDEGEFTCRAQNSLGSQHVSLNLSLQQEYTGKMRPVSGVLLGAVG
T3 sequence (Q9Y286 19-357 limits assumed): as above

B1: anti-Siglec-7 antibody 3E11 (antibody, V domains shown)
VH: QVQLQQSGAELARPGASVKLSCKASGYIFTDYGITWVKQRTGQGLEWIGEISPRSGETYFNENYRVKATLTADKSSSTAYMQLFSLTSEDSAVYFCAREGNPFTYWGHGTLVTVSA
VL: DVZMTQTPLSLPVSLGDQASISCRSSQSLVHSTGNTYLHWYLQKPGQSPKLLIYKVSNRFCGVPDRFSGSGAGTDFTLKISRVEAEDLGVYFCSQNTHVPYTFGGGTKLEIK
notes: Variable domains assembled from FR and CDR entries
Turning to B1, in experiment [1], the “Percent Siglec-7 Surface Expression, Macrophages” value was determined as 7.4%; the “Percent Siglec-7 Surface Expression, Microglia” value amounted to 34.2%; the “Percent Siglec-7 Surface Expression, NK cells” value is 108%. Further, in [2], the Kd was 1000 pM. In addition, in experiment [3], the “Percent Siglec-7 Surface Expression, DCs” value was determined as 19.9%; the “Percent Siglec-7 Surface Expression, Monocytes” value stood at 23.9%; the “Percent Siglec-7 Surface Expression, U937 cells” value was 82.4%. In [4], the “% Positive” value was 99.6% and the MFI worked out at 2520. The “Percent RBC Binding to Siglec-7” value in experiment [5] was determined as 26.8%. Moreover, in experiment [6], the “% Positive” value was found to be 98.7% and the MFI was found to be 380. Besides, in experiment [7], the “% Positive” value is 99.6% and the MFI amounted to 4040.

B2: anti-Siglec-7 antibody 4E3 (antibody, V domains shown)
VH: EVQLVESGGALVKPGGSLKISCAVSGFIFSNYDMSWVRQNPEKRLEWVATISSGGGYTYYPDSVKGRFTISRDNAKNALYLQMSSLRSEDTALYYCTRHGYGNYDWYFDVWGAGATVTVSS
VL: QIVLTQSPAILSASPGEKVTMTCSANSSFTYMYWYQQKPGSSPRLLIFDTSNLASGVPIRFSGSGSGTSYSLTISRMEAEDTATYYCQQWSSSPLTFGAGTKLELK
notes: VL FR1 there holds a Z); also called S7-4E3; mAb S7-4E3
For the molecule B2, in experiment [1], the “Percent Siglec-7 Surface Expression, Macrophages” value was found to be 4.2%; the “Percent Siglec-7 Surface Expression, Microglia” value is 20.9%; the “Percent Siglec-7 Surface Expression, NK cells” value is 31.2%. For the same molecule, in experiment [8], the “EC50 of Siglec-7 cell surface downregulation, primary human dendritic cells, donor 362” value amounted to 114 pM; the “EC50 of Siglec-7 cell surface downregulation, primary human dendritic cells, donor 363” value is 95 pM; the “EC50 of Siglec-7 cell surface downregulation, primary human dendritic cells, donor 364” value worked out at 49.9 pM; the “EC50 of Siglec-7 cell surface downregulation, primary human dendritic cells, donor 365” value is 33.6 pM. Moreover, the response in experiment [9] was half-maximal at 301 pM (EC50). Besides, the Kd in [2] is 300 pM. Further, a half-maximal effect in experiment [10] (EC50) was put at 336 pM. In experiment [3], the “Percent Siglec-7 Surface Expression, DCs” value is 11.2%; the “Percent Siglec-7 Surface Expression, Monocytes” value came to 15.1%; the “Percent Siglec-7 Surface Expression, U937 cells” value was 30.8%. Also, in [4], the “% Positive” value was 99.7% and the MFI came out at 2650. Moreover, the “Percent RBC Binding to Siglec-7” value in experiment [5] was determined as 20.2%. Also, in [6], the “% Positive” value stood at 98.6% and the MFI is 362. In experiment [7], the “% Positive” value was 99.6% and the MFI amounted to 4150.

B3: anti-Siglec-7 antibody 2G1 (antibody, V domains shown)
VH: B2 VH with Q3K, A10T, V24A, I28T, G56D, S63I, V64F, N74D, T97A
VL: VLTQSPAIMSASPGEKVTMTCSANSSFIYMYWYQQKPGSSPRLLIFDTSNLASGVPIRFSGSGSGTSYSLTISRMEAEDTATYYCQQWSSSPLTFGGGTKLELK
notes: Variable domains assembled from FR and CDR entries; the printed VL FR1 looks shortened at its N-terminus; also called 2G11 (misprint in text)
In the case of B3, in experiment [1], the “Percent Siglec-7 Surface Expression, Macrophages” value was 95.7%; the “Percent Siglec-7 Surface Expression, Microglia” value is 106%; the “Percent Siglec-7 Surface Expression, NK cells” value came to 114%. This molecule also registered a Kd in experiment [11] of 100 pM. In [3], the “Percent Siglec-7 Surface Expression, DCs” value is 1100%; the “Percent Siglec-7 Surface Expression, Monocytes” value was 140%; the “Percent Siglec-7 Surface Expression, U937 cells” value came out at 121%. In addition, in [4], the “% Positive” value came out at 99.7% and the MFI stood at 10200. Further, the “Percent RBC Binding to Siglec-7” value in experiment [5] was found to be 14.5%. Also, in [6], the “% Positive” value worked out at 99.4% and the MFI was 577. In addition, in [7], the “% Positive” value worked out at 99.5% and the MFI was found to be 25700.

B4: anti-Siglec-7 antibody 7A3 (antibody, V domains shown)
VH: LVZSGGALVKPGGSLKLSCAASGFTFSNYAMSWVRQTPEKRLEWVASISSGGSYNYYPDSVKGRFTISRDNARNTLYLQMSSLRSKDTAMYYCASQSYGSSYWYFDVWGAGTTVTVSS
VL: DIQMTQZPATLSVTPGDRVSLSCRASQSISEYLHWYHQKSHESPRLLIKFASQSICGIPSRFSGSGSGSDFTLTINSVEPEDVGVYYCQNGHNFPYTFGGGTKLEIK
notes: Variable domains assembled from FR and CDR entries; VL FR1 and VH FR1 hold Z and VH FR1 looks shortened at its N-terminus
B4: in experiment [1], the “Percent Siglec-7 Surface Expression, Macrophages” value is 8.3% and the “Percent Siglec-7 Surface Expression, NK cells” value came to 77.1%. In addition, the Kd in experiment [11] turned out to be 1000 pM. In addition, in experiment [3], the “Percent Siglec-7 Surface Expression, DCs” value worked out at 11%; the “Percent Siglec-7 Surface Expression, Monocytes” value was found to be 23.7%; the “Percent Siglec-7 Surface Expression, U937 cells” value is 76.3%. In experiment [4], the “% Positive” value was 99.7% and the MFI is 956. The “Percent RBC Binding to Siglec-7” value in [5] was 89.5%. Moreover, in experiment [6], the “% Positive” value was found to be 97.9% and the MFI is 407. In addition, in [7], the “% Positive” value was 99.7% and the MFI is 2840.

Broadly, the Kd is the concentration at which binding is half-saturated. A high value points to a looser complex. One may read the EC50 as the concentration at which the effect is half-maximal.
